Our source for the Kd values is doi:10.1101/2023.02.25.530030.

Bounds are passed on as bounds.

In this experiment the target is human Mdm2 (1-125) (human). The experiment is described as follows: fluorescence polarisation. (In general: In fluorescence polarisation assays a small probe gives low polarisation when free and higher when bound to something large.)
Sequence of human Mdm2 (1-125) (human) (Q00987 1-125): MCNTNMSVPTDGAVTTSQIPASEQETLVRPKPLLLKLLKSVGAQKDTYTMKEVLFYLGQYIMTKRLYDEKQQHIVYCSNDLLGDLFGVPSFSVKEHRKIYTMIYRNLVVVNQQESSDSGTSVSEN
The term Kd denotes the constant that tells how readily two partners part at equilibrium. The low end stands for higher affinity, the high end for lower affinity. As for azide-ATSP-7041 (MP-081) (peptide), the Kd came out at 5 nM. With “azide-ATSP-7041 (L1N, E5N, A8N, S12N, A13N, A14N) (peptide)” the figure was 15 nM; with “azide-ATSP-7041 (L1D, E5D, A8D) (peptide)”, 5 nM.

Take azide-ATSP-7041 (MP-081) E5P (peptide): the Kd is 7800 nM. This Kd lies about 1600-fold higher than the previous one.

As to “MP-444: Ac-K(N3)-TF(X)EYWAQ(Cba)(X)EAFAAF-NH2 (peptide)”, the equilibrium dissociation constant (Kd) was 1.5 nM. On to “azide-ATSP-7041 (MP-081) with Cba10 substituted with Ala (peptide)”, for which the equilibrium dissociation constant (Kd) is 115 nM. With “MP-793 (all-D di-alkyne stapled analog of ^dPMI-δ(5-12 staple)) (peptide)” the figure was below 1 nM; with “azide-ATSP-7041 (MP-081) with Cba10 substituted with Leu (peptide)”, 56 nM.
